Measurements as given in the supplement of paper PMC10567573.

B1: DYRK1B (parent)
chain: KKVLNHGYDDDNHDYIVRSGERWL
B2: CCDC6 (parent)
chain: FTPPTSLTRAGMSYYNSPGLHVQH

Variants of: B1
Assay: protein stability index of a GFP-peptide fusion (GPS, HEK-293T) (PSI 1-6); higher = more stable
Conditions: c terminus: a fixed tail appended
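Note: lentivirally expressed fusions sorted by FACS into six bins by GFP to DsRed ratio, PSI derived from sequencing read proportions per bin multiplied by bin number.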

Protein stability index: each site, then its substitutions
R22: W 2.06; Y 2.52; N 3.31; I 2.17; A 3.15; P 3.16; G 3.19; D 3.44; F 1.91; K 3.29; Q 3.53; T 2.83; H 3.13; E 3.58; V 2.6; M 2.57; L 2.25; S 3.35; C 2.85
W23: A 3.81; S 4.47; T 4.3; Q 4.2; D 4.73; F 3.62; V 4.31; N 4.56; M 3.93; I 3.9; P 3.7; R 3.6; L 3.88; G 4.07; K 4.3; E 4.46; C 3.8; H 3.99; Y 3.64
L24: W 2.85; E 4.07; A 3.37; C 3.46; T 3.51; R 3.55; K 3.85; D 4.08; F 2.81; V 3.8; N 3.75; G 3.81; S 3.58; Y 3.03; H 3.57; P 3.82; Q 3.69; I 3.33; M 3.49
E21: Y 2.32; V 2.28; R 2.83; S 2.42; T 2.7; W 2.57

Variants of: B2
Assay: as above
Conditions: c terminus: a fixed tail appended

Protein stability index of substitutions, site by site:
T8: Q 2.53; M 1.92; N 2.06; I 2.14; S 1.83; E 1.41; Y 1.5; D 1.82; A 1.76; C 2.73; F 2.56; V 1.85; L 1.78; W 1.78; P 2.46; H 1.56; G 2.06; K 1.46
Y14: N 2.6; T 2.33; C 1.93; I 1.64; M 1.7; A 2.09; L 1.44; P 1.88; Q 2.65; D 3.09; S 2.46; E 2.73; K 2.66; F 1.94; G 2.31; W 1.67; V 1.32; R 3.18; H 2.42
L7: A 2.21; P 2.33; T 1.89; G 1.66; I 1.41; C 2.61; V 1.56; S 1.7; H 2.28; M 2.29; F 2.4; D 1.62; R 2.04; K 2.59; N 1.7; E 2.12; W 2.33; Y 2.39; Q 2.38
P3: D 2.1; Q 2.32; M 1.87; F 1.95; C 2; S 2.1; G 2.07; K 2.78; I 1.63; H 1.79; N 2.02; E 2.16; L 1.98; Y 1.93; V 2.08; T 2.35; R 2.14; W 1.21; A 1.73
A10: T 1.68; P 1.91; S 2.06; F 2.33; D 1.37; L 1.2; H 2.09; K 2.01; E 2.15; M 1.9; W 3.03; N 2.23; V 1.98; R 2.22; Q 2; Y 2.72; I 1.75
S6: R 2.47; C 2.1; Y 1.84; I 2.2; M 1.65; K 1.51; D 1.79; W 2.27; Q 2.21; A 1.51; F 2.98; E 1.91; T 1.73; L 2.45; H 1.66; V 2.1; G 2; N 1.84
F1: M 3.01; S 2.01; N 2.88; C 1.52; R 2.19; H 2.9; P 2.82; W 2.14; E 2.85; D 3.56; L 1.89; V 2.41; K 2.49; I 2.46; Y 1.91; G 2.54; Q 2.64; A 2.65; T 2.94
M12: G 1.57; D 2.19; I 2.02; E 2.29; T 2.16; Q 1.73; S 2; R 1.79; H 2.33; K 2.2; P 2.56; A 1.84; L 2.21; C 1.68; F 1.58; N 2.12; W 2.4; Y 1.71; V 1.99
G11: E 1.84; K 1.19; Q 1.98; T 2.17; R 1.68; C 1.71; F 1.68; Y 2.12; I 1.49; S 2.23; M 1.91; N 2.46; V 1.56; A 1.96; L 1.97; D 1.75; H 1.69
R9: F 2.94; V 1.58; N 1.65; I 1.45; Q 2.54; S 1.79; E 2.63; D 2.77; T 1.47; H 1.27; Y 3.32; A 2.1; K 1.71; G 1.59; M 1.81; C 2.58; L 2.82
P4: N 3.07; I 1.51; A 1.15; E 1.99; R 1.83; S 1.42; M 2.04; D 2.23; C 2.3; L 4.29; Q 2.48; F 1.97; T 2.27; H 2.19; Y 3.21; V 2.5
T5: R 1.96; G 2.07; P 1.68; M 2.42; S 1.84; Y 1.01; Q 1.53; D 1.89; N 1.81; L 2.29; F 1.69; V 2.01; E 2.29; I 1.84; H 1.72; A 2; C 1.74; K 1.54
Y15: T 2.51; D 2.58; V 2.89; K 2.33; A 2.24; M 1.92; Q 2.45; I 2.18; E 2.35; G 2.37; F 2.5; H 2.11; C 1.99; N 2.23; R 2.33; P 2.57; L 2.22; S 2.21
S13: R 1.87; Y 1.86; T 1.39; V 1.97; K 2.11; I 1.69; E 1.9; L 1.73; C 1.55; F 2.54; H 1.67; M 1.34; G 1.39; W 1.3; N 1.77; A 2.18; D 1.43; P 1.96
T2: G 2.47; M 2.6; Q 1.91; P 2.26; R 2.17; K 1.79; I 2.6; E 2.83; C 1.91; W 2.67; F 1.48; D 2.1; S 1.5; Y 1.69; V 1.96; L 1.87; N 1.55; H 1.85; A 1.84
